A short description of the data set: yeast display, Sf9 membrane polyspecificity reagent, FACS + sequencing; frameworks hold sequencing errors. The method in brief:
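Genes from sorted yeast were amplified by colony PCR, read by MiSeq 2 × 250 sequencing and filtered on CDR length. These cells carried a synthetic nanobody library in Saccharomyces cerevisiae BJ5465 and were sorted by FACS into low and high (top ~1%) gates on anti-HA and streptavidin fluorescence. Polyreactivity is labelled according to the gate of origin.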
As to “QVQLVESGGGLVQAGGSLRLTCAASGITFKYYAMGWYRQAPGKERELVAAIRGSGGGTNYADSVKGRFTISRDNAMNTVYLQMNSLKQEDSAVYYCAAANWRRNDYRYRFDYWGQGTQVTVSS”, the “polyreactivity (PSR sort gate)” value was “high polyreactivity”. For “QVQLVESGGGLVQAGGSLRLTCAASGITFRKYAMGWYRQAPGKERELVAGIRYSGSSTYYADSVKGRFTISRDNAKNTVYLQMNSLKPEDTAVYYGATGGYVWYRSVNVWTRMDYWGQGTQVTVSS”, the “polyreactivity (PSR sort gate)” value is recorded as “high polyreactivity”.

As to “QVQLVESGGGLVQAGGSLRLTCAASGITFYYYAMGWYRQAPAKERELVAAISFRGGSTYYADSVKARFTISRDNPKNTFYLQMNSLNPEDTAVYYCASVTSPSWYTWVTYDYWGQGTQVTVSS”, the “polyreactivity (PSR sort gate)” value is on record as “high polyreactivity”. The entry for “QVQLVESGGGLVQAGGSLRLTCAASGITLLYNAMGWYRQAPGKESELVAGITGRGGSTYYADSVKGRFTISRDNAKNTVYLQMNSLKPEDTAVYYCAATTDYRYVGRIVIRDEHWGQGTQVTVSS” is “low polyreactivity”; for “QVQLVESGGGLVQAGGSLRLTCAASGITLYNYAMGWYRQAPGKERELVAAISLSGGRTYYADSVKGRFTISRDNAKNTVYLQMNSLKPEDTAVYYCAADWLNSDPYNYWGQGTQVTVSS” it is “low polyreactivity”; for “QVQLVESGGGLVQAGGSLRLTCAASGLFYAMGWYRQAPGKQRELVAAISSVGSTNYADSVKGRFTISRDNAKNTVYLQMNSLKPEDTAVYYCAAYFYTYPVDRYGSYYWGQGTQLTVSS” it is “low polyreactivity”. As to “QVQLVESGGGLVQAGGSLRLTCAASGLIFRPYTMGWYRQAPGKERELVATISGSGASTNYADSVKGRFTNSRDNAKNTVYFQMNSLKPEDTSVYYCKGRSYSRMYYWGQGTQVTVSS”, the “polyreactivity (PSR sort gate)” value is listed as “high polyreactivity”. To “QVQLVESGGGLVQAGGSLRLTCAASGLTFAGYAMGWYRQAPGKERELVAYITTSGGSTHYADSVKGRFTISRDNAKNTVYLQMNSLKPEDTAVYYCAAEGYPGDNELIGAFDYWGQGTQVTVSS” belongs “low polyreactivity”. Turning to “QVQLVESGGGLVQAGGSLRLTCAASGLTFGFNAMGWYRQAPGKERELVAAISSRGGSTYYADSVKGRFTISRDNAKNTVYLQMNSLKPEDTAVYYCAVRYYSPYGYWGQGTQVTVSS”, the “polyreactivity (PSR sort gate)” value is “low polyreactivity”. As to “QVQLVESGGGLVQAGGSLRLTCAASGLTFGGNAMGWYRQAHRKERELVAAISWSDDTTDYADSVKGRFTISRDNAKNSVYLQMNSLNPEDTAIYYCAARLPFEHVDYWGQGTQVTVSS”, the “polyreactivity (PSR sort gate)” value is “low polyreactivity”. To “QVQLVESGGGLVQAGGSLRLTCAASGLTFTYYAMGWYRQAPGKERELVAAISASGGNTYYADSVKGRFTISRDNAKNTVYLQMNSLKPEDTAVFYCAAESSIYRGYGYSGQGTQVTVSS” belongs “high polyreactivity”; to “QVQLVESGGGLVQAGGSLRLTCAASGNIFYTYAMGWYRQPPGKERELVAGLSSDGSTTYADSVKGRFTISRDNAKNTVYLQMNSLNPEDTAVYYCPADITGILWYGYYYWGQGTQVTVSS”, “low polyreactivity”; to “QVQLVESGGGLVQAGGSLRLTCAASGNTFSPNAMGWYRHAPGKERELVAAIDSRDGITYYADSVKGRFTISRDNAKNTVYLQMNSLKPEDTAVYYCAADEWYGESNFWGQGTQVTVSS”, “low polyreactivity”. With “QVQLVESGGGLVQAGGSLRLTCAASGNTFWDNAMRWYRQAPGKERELVAAIRWSTGSTHYADSVKGRFTISRDNAKNTVYLQMNSLKPEDTAVYDCAATDYYYYRDKYYGYVYWGQGTHVTVSS”, the “polyreactivity (PSR sort gate)” value is on record as “low polyreactivity”. To “QVQLVESGGGLVQAGGSLRLTCAASGNTFYGKTIGWYRQAPGKERELVAAIRFTGGSTTYADSVKGRFTISRDNAKITVYLQLNRLKPEDTAVYYCNTVWVSFSSIYHEYDYWGQGTQVTVSS” belongs “low polyreactivity”.

As for “QVQLVESGGGLVQAGGSLRLTCAASGRIFAVYAMGWYRQAPGKERELVATISSSGSTHYADSVKGRFTISRDNAKNTVYLQMNSLKPEDTAVYYCNAGGSELKLGHDYWGQGTQVTVSS”, the “polyreactivity (PSR sort gate)” value is “low polyreactivity”.

Source of the values: the nanobody polyreactivity screen of Harvey et al. (2022).
